{"source": "paper PMC10786891", "about": "“Massively parallel profiling of RNA-targeting CRISPR-Cas13d”", "data": [{"molecular_target": "T1, EsCas13d, nuclease-dead (Eubacterium siraeum, UniProt B0MS50, R295A;H300A;R849A;H854A)", "T1 sequence": "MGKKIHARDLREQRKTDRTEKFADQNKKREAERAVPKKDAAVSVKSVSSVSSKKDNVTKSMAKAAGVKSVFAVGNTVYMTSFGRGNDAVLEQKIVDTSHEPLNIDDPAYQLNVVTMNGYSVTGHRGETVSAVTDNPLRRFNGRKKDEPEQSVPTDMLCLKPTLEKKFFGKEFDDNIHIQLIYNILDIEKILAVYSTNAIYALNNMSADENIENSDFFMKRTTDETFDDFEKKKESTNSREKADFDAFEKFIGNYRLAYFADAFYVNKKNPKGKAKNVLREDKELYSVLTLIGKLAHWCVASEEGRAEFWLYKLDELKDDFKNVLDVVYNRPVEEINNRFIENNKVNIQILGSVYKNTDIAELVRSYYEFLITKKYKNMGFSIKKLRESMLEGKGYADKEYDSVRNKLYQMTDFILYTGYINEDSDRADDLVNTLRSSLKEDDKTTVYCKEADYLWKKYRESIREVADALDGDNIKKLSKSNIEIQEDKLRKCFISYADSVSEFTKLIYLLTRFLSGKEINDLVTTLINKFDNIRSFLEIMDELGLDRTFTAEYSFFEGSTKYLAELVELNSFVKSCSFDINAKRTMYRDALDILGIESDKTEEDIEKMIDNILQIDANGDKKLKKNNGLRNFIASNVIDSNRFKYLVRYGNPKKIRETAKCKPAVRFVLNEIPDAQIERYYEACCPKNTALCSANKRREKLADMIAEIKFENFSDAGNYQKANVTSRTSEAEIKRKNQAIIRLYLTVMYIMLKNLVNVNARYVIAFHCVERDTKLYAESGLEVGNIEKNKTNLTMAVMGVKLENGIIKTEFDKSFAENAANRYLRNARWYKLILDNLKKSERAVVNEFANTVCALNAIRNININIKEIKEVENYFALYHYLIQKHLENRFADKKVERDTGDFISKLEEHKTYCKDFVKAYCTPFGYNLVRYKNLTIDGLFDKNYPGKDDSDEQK", "assay": "crRNA (strand 1, pre-loaded); Mg2+; 40 mM Tris-HCl pH 7.5, 150 mM NaCl, 6 mM MgCl2, 1 mM DTT, 0.1% Tween-20, 0.2 mg/ml BSA; 25 C; 10 min per concentration, then washed", "conditions": "tags: His6-TwinStrep-SUMO cleaved; N-terminal SNAP kept (SNAP-Surface 488); label: 3' end held by stalled T7 RNA polymerase", "units": {"Kd": "nM"}, "values": [{"binder": "target 1 insU 3' of 13,insG 3' of 8 (mixed) RNA 1: CACCCGUGCAAAAAUGCAGGGGUCUAAAACUGAGCGGAUAACCUCUCUAUGG RNA 2: GGGAAUGGAUCCACAUCUACGAAUUCGUACCAUAGAGAGUGUUAUGCCGCUCACCGAGAUCGGAAGAGCACACGU", "Kd": "11.9 ± 1.3"}, {"binder": "target 1 insA 3' of 6,insG 3' of 4 (mixed) RNA 1: CACCCGUGCAAAAAUGCAGGGGUCUAAAACUGAGCGGAUAACCUCUCUAUGG RNA 2: GGGAAUGGAUCCACAUCUACGAAUUCGUACCAUAGAGAGGUUAUCCAGCGUCACCGAGAUCGGAAGAGCACACGU", "Kd": "12.7 ± 0.6"}, {"binder": "target 1 insU 3' of 22,insG 3' of 9 (mixed) RNA 1: CACCCGUGCAAAAAUGCAGGGGUCUAAAACUGAGCGGAUAACCUCUCUAUGG RNA 2: GGGAAUGGAUCCACAUCUACGAAUUCGUACUCAUAGAGAGGUUAGUCCGCUCACCGAGAUCGGAAGAGCACACGU", "Kd": "76 ± 12"}, {"binder": "target 1 insG 3' of 19,insU 3' of 9 (mixed) RNA 1: CACCCGUGCAAAAAUGCAGGGGUCUAAAACUGAGCGGAUAACCUCUCUAUGG RNA 2: GGGAAUGGAUCCACAUCUACGAAUUCGUACCAUGAGAGAGGUUAUUCCGCUCACCGAGAUCGGAAGAGCACACGU", "Kd": "92 ± 34"}, {"binder": "target 1 insA 3' of 12,insG 3' of 10 (mixed) RNA 1: CACCCGUGCAAAAAUGCAGGGGUCUAAAACUGAGCGGAUAACCUCUCUAUGG RNA 2: GGGAAUGGAUCCACAUCUACGAAUUCGUACCAUAGAGAGGAUUGAUCCGCUCACCGAGAUCGGAAGAGCACACGU", "Kd": "29.2 ± 3.2"}, {"binder": "target 1 insC 3' of 12,insA 3' of 5 (mixed) RNA 1: CACCCGUGCAAAAAUGCAGGGGUCUAAAACUGAGCGGAUAACCUCUCUAUGG RNA 2: GGGAAUGGAUCCACAUCUACGAAUUCGUACCAUAGAGAGGCUUAUCCGACUCACCGAGAUCGGAAGAGCACACGU", "Kd": "10.4 ± 1.1"}, {"binder": "target 1 insG 3' of 16,insA 3' of 8 (mixed) RNA 1: CACCCGUGCAAAAAUGCAGGGGUCUAAAACUGAGCGGAUAACCUCUCUAUGG RNA 2: GGGAAUGGAUCCACAUCUACGAAUUCGUACCAUAGAGGAGGUUAUACCGCUCACCGAGAUCGGAAGAGCACACGU", "Kd": "22.1 ± 1.8"}, {"binder": "target 1 G15A,G17U (mixed) RNA 1: CACCCGUGCAAAAAUGCAGGGGUCUAAAACUGAGCGGAUAACCUCUCUAUGG RNA 2: GGGAAUGGAUCCACAUCUACGAAUUCGUACCAUAUAAAGGUUAUCCGCUCACCGAGAUCGGAAGAGCACACGU", "Kd": "73 ± 13"}, {"binder": "target 1 insA 3' of 19,insG 3' of 16 (mixed) RNA 1: CACCCGUGCAAAAAUGCAGGGGUCUAAAACUGAGCGGAUAACCUCUCUAUGG RNA 2: GGGAAUGGAUCCACAUCUACGAAUUCGUACCAUAAGAGGAGGUUAUCCGCUCACCGAGAUCGGAAGAGCACACGU", "Kd": "46 ± 6"}, {"binder": "target 1 insG 3' of 6,insA 3' of 3 (mixed) RNA 1: CACCCGUGCAAAAAUGCAGGGGUCUAAAACUGAGCGGAUAACCUCUCUAUGG RNA 2: GGGAAUGGAUCCACAUCUACGAAUUCGUACCAUAGAGAGGUUAUCCGGCUACACCGAGAUCGGAAGAGCACACGU", "Kd": "6.9 ± 0.4"}, {"binder": "target 1 C6A,A18U (mixed) RNA 1: CACCCGUGCAAAAAUGCAGGGGUCUAAAACUGAGCGGAUAACCUCUCUAUGG RNA 2: GGGAAUGGAUCCACAUCUACGAAUUCGUACCAUUGAGAGGUUAUCAGCUCACCGAGAUCGGAAGAGCACACGU", "Kd": "26.7 ± 2.1"}, {"binder": "target 1 del3,del8 (mixed) RNA 1: CACCCGUGCAAAAAUGCAGGGGUCUAAAACUGAGCGGAUAACCUCUCUAUGG RNA 2: GGGAAUGGAUCCACAUCUACGAAUUCGUACCAUAGAGAGGUUACCGCCACCGAGAUCGGAAGAGCACACGU", "Kd": "7.05 ± 0.33"}, {"binder": "target 1 insG 3' of 7,insU 3' of 5 (mixed) RNA 1: CACCCGUGCAAAAAUGCAGGGGUCUAAAACUGAGCGGAUAACCUCUCUAUGG RNA 2: GGGAAUGGAUCCACAUCUACGAAUUCGUACCAUAGAGAGGUUAUCGCGUCUCACCGAGAUCGGAAGAGCACACGU", "Kd": "13.8 ± 1"}, {"binder": "target 1 insU 3' of 7,insA 3' of 6 (mixed) RNA 1: CACCCGUGCAAAAAUGCAGGGGUCUAAAACUGAGCGGAUAACCUCUCUAUGG RNA 2: GGGAAUGGAUCCACAUCUACGAAUUCGUACCAUAGAGAGGUUAUCUCAGCUCACCGAGAUCGGAAGAGCACACGU", "Kd": "23.7 ± 0.8"}, {"binder": "target 1 insU 3' of 17,insA 3' of 7 (mixed) RNA 1: CACCCGUGCAAAAAUGCAGGGGUCUAAAACUGAGCGGAUAACCUCUCUAUGG RNA 2: GGGAAUGGAUCCACAUCUACGAAUUCGUACCAUAGUAGAGGUUAUCACGCUCACCGAGAUCGGAAGAGCACACGU", "Kd": "14.2 ± 1.2"}, {"binder": "target 1 G15C,G17C (mixed) RNA 1: CACCCGUGCAAAAAUGCAGGGGUCUAAAACUGAGCGGAUAACCUCUCUAUGG RNA 2: GGGAAUGGAUCCACAUCUACGAAUUCGUACCAUACACAGGUUAUCCGCUCACCGAGAUCGGAAGAGCACACGU", "Kd": "50 ± 10"}, {"binder": "target 1 insG 3' of 10,insG 3' of 6 (mixed) RNA 1: CACCCGUGCAAAAAUGCAGGGGUCUAAAACUGAGCGGAUAACCUCUCUAUGG RNA 2: GGGAAUGGAUCCACAUCUACGAAUUCGUACCAUAGAGAGGUUGAUCCGGCUCACCGAGAUCGGAAGAGCACACGU", "Kd": "22.2 ± 1.5"}, {"binder": "target 1 insC 3' of 17,insU 3' of 12 (mixed) RNA 1: CACCCGUGCAAAAAUGCAGGGGUCUAAAACUGAGCGGAUAACCUCUCUAUGG RNA 2: GGGAAUGGAUCCACAUCUACGAAUUCGUACCAUAGCAGAGGUUUAUCCGCUCACCGAGAUCGGAAGAGCACACGU", "Kd": "42 ± 6"}, {"binder": "target 1 U8A,A18U (mixed) RNA 1: CACCCGUGCAAAAAUGCAGGGGUCUAAAACUGAGCGGAUAACCUCUCUAUGG RNA 2: GGGAAUGGAUCCACAUCUACGAAUUCGUACCAUUGAGAGGUUAACCGCUCACCGAGAUCGGAAGAGCACACGU", "Kd": "78 ± 23"}, {"binder": "target 1 A14G,C21A (mixed) RNA 1: CACCCGUGCAAAAAUGCAGGGGUCUAAAACUGAGCGGAUAACCUCUCUAUGG RNA 2: GGGAAUGGAUCCACAUCUACGAAUUCGUACAAUAGAGGGGUUAUCCGCUCACCGAGAUCGGAAGAGCACACGU", "Kd": "46 ± 12"}, {"binder": "target 1 C6U (mixed) RNA 1: CACCCGUGCAAAAAUGCAGGGGUCUAAAACUGAGCGGAUAACCUCUCUAUGG RNA 2: GGGAAUGGAUCCACAUCUACGAAUUCGUACCAUAGAGAGGUUAUCUGCUCACCGAGAUCGGAAGAGCACACGU", "Kd": "8.5 ± 0.4"}, {"binder": "target 1 U10C,G13U (mixed) RNA 1: CACCCGUGCAAAAAUGCAGGGGUCUAAAACUGAGCGGAUAACCUCUCUAUGG RNA 2: GGGAAUGGAUCCACAUCUACGAAUUCGUACCAUAGAGAUGUCAUCCGCUCACCGAGAUCGGAAGAGCACACGU", "Kd": "71 ± 18"}, {"binder": "target 1 A1G,C22A (mixed) RNA 1: CACCCGUGCAAAAAUGCAGGGGUCUAAAACUGAGCGGAUAACCUCUCUAUGG RNA 2: GGGAAUGGAUCCACAUCUACGAAUUCGUAACAUAGAGAGGUUAUCCGCUCGCCGAGAUCGGAAGAGCACACGU", "Kd": "12 ± 0.7"}, {"binder": "target 1 G5A,G12A (mixed) RNA 1: CACCCGUGCAAAAAUGCAGGGGUCUAAAACUGAGCGGAUAACCUCUCUAUGG RNA 2: GGGAAUGGAUCCACAUCUACGAAUUCGUACCAUAGAGAGAUUAUCCACUCACCGAGAUCGGAAGAGCACACGU", "Kd": "10.2 ± 1.5"}, {"binder": "target 1 insA 3' of 22,insG 3' of 7 (mixed) RNA 1: CACCCGUGCAAAAAUGCAGGGGUCUAAAACUGAGCGGAUAACCUCUCUAUGG RNA 2: GGGAAUGGAUCCACAUCUACGAAUUCGUACACAUAGAGAGGUUAUCGCGCUCACCGAGAUCGGAAGAGCACACGU", "Kd": "8.62 ± 0.35"}, {"binder": "target 1 C2U,A16G (mixed) RNA 1: CACCCGUGCAAAAAUGCAGGGGUCUAAAACUGAGCGGAUAACCUCUCUAUGG RNA 2: GGGAAUGGAUCCACAUCUACGAAUUCGUACCAUAGGGAGGUUAUCCGCUUACCGAGAUCGGAAGAGCACACGU", "Kd": "39.3 ± 2.7"}, {"binder": "target 1 insA 3' of 17,insA 3' of 5 (mixed) RNA 1: CACCCGUGCAAAAAUGCAGGGGUCUAAAACUGAGCGGAUAACCUCUCUAUGG RNA 2: GGGAAUGGAUCCACAUCUACGAAUUCGUACCAUAGAAGAGGUUAUCCGACUCACCGAGAUCGGAAGAGCACACGU", "Kd": "10.6 ± 1.1"}, {"binder": "target 1 A9G,C21U (mixed) RNA 1: CACCCGUGCAAAAAUGCAGGGGUCUAAAACUGAGCGGAUAACCUCUCUAUGG RNA 2: GGGAAUGGAUCCACAUCUACGAAUUCGUACUAUAGAGAGGUUGUCCGCUCACCGAGAUCGGAAGAGCACACGU", "Kd": "9 ± 0.5"}]}]}
